Experimental data as given in article PMC6917740.

T1: 12 amino acid peptide (HSET-N) labeled with biotin at the N-terminus (bio-…)
T1 sequence (peptide, biotin at the N-terminus): EDGLEPEKKRTR


Target: T1, 12 amino acid peptide (HSET-N) labeled with biotin at the N-terminus (bio-…)
Experiment: SPR; BIAcore T200, 25 °C; biotinylated peptide immobilised on a Series S sensor chip SA at 10-40 RU; antibodies injected 3 min at 30 µl/min in HBS-EP (10 mM HEPES pH 7.4, 250 mM NaCl, 3 mM EDTA, 0.05% P-20); at least five concentrations; 1:2 binding model, which reflects the avidity effect; KD = …

| Binder | Kd [nM] | koff [s⁻¹] | kon [M⁻¹ s⁻¹] |
| --- | --- | --- | --- |
| mouse 6C407 IgG2a/κ (antibody, V domains shown) VH: EVQLQQSGAELVKPGASVKLSCTASGFNIKDTYIHWVKQRPEQGLEWIGRIDPANGNTKYDPKFQGKATITADTSSNTAYLQLSSLTSEDTAVYYCARGYGSRSAMDYWGQGTSVTVS VL: DIVLTQSPASLAVSLGQRATISCRASKSVSTSGYSYMLWYQQKPGQPPKLLIYLASNLESGVPARFSGSGSGTDFTLNIHPVEEEDAATYYCQHSRELPWTFGGGTKLEIK | 2.45 | 0.00138 | 567000 |
| chimeric mouse-chicken MC-6C407 IgY/λ (antibody, V domains shown) VH: EVQLQQSGAELVKPGASVKLSCTASGFNIKDTYIHWVKQRPEQGLEWIGRIDPANGNTKYDPKFQGKATITADTSSNTAYLQLSSLTSEDTAVYYCARGYGSRSAMDYWGQGTSVTVS VL: DIVLTQSPASLAVSLGQRATISCRASKSVSTSGYSYMLWYQQKPGQPPKLLIYLASNLESGVPARFSGSGSGTDFTLNIHPVEEEDAATYYCQHSRELPWTFGGGTKLEIK | 1.24 | 0.000632 | 511000 |
